T1: extracellular domain of human CD70 (SEQ ID NO: 89), hCD70-Fc-trimer, ACRO Biosystems (human, UniProt P32970 52-193, chemically biotinylated where the biotinylated form was used)
T1 construct: also called human CD70-Fc-trimer; Bio.CD70
T1 sequence: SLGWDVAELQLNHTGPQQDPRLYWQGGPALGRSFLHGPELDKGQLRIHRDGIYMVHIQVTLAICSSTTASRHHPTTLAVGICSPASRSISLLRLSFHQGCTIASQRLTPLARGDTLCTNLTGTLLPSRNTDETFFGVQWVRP

T2: biotinylated extracellular domain of human CD123 (SEQ ID NO: 88), Fc and Avi tagged (human, UniProt P26951 19-303, biotinylated with BirA-GST (Avi tag))
T2 construct: also called hCD123
T2 sequence: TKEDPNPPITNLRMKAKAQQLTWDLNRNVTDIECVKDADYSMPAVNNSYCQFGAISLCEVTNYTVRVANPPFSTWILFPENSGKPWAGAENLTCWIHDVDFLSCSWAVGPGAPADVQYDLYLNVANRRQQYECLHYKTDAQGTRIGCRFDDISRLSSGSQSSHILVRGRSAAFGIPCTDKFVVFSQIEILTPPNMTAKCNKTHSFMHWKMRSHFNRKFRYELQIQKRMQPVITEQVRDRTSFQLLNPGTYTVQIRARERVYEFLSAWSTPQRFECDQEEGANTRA


What was measured:
[1] = target: T1, extracellular domain of human CD70 (SEQ …); assay: SPR (ProteOn XPR36), target on GLC chip
Excerpt: (§1) For that, DARPin® protein #27, DARPin® protein #29, DARPin® protein #47 and DARPin® protein #48 and DARPin® protein #49, DARPin® protein #50, DARPin® protein #51, DARPin® protein #52, DARPin® protein #31, DARPin® protein #53, DARPin® protein #54, DARPin® protein #55, DARPin® protein #34, DARPin® protein #33, DARPin® protein #39 and DARPin® protein #36 were subcloned and expressed as described above into derivatives of the pQE30 (Qiagen) expression vector, containing an N-terminal His-tag, CD33, CD123 and/or CD70 binding ankyrin repeat domains, followed by a CD3 specific ankyrin repeat domain and for some constructs by a human serum albumin specific ankyrin repeat domain.
(§2) Briefly, biotinylated human CD70, CD123 and CD33 was diluted in PBST (PBS, pH 7.4 containing 0.005% Tween 20®) and coated on a GLC chip (BioRad) to a level of around 200, 460 and 450 resonance units (RU) respectively. HSA in NaOAc pH 5.0 was directly immobilized on the GLC chip to a level of 800 RU. Bio.CD70, bio. CD33 and bio. CD123 required to have Neutravidin coated first to a level of 6000 RU before the biotinylated targets could be applied. The interaction of the selected ankyrin repeat proteins and human CD70, CD123 and CD33 was then measured by injecting 300 μl running buffer (PBS, pH 7.4 containing 0.005% Tween 20®) containing serial dilutions of ankyrin repeat proteins covering a concentration range between 100 nM and 2.6 nM (100, 40, 16, 6.4 and 2.6 nM respectively) for multi-trace SPR measurements, with an association of 120 s and dissociation of 1200 s using a constant flow of 100 μl/min. The regeneration was performed using 30 μl of 4 mM Glycine pH 2. The signals (i.e. resonance unit (RU) values) of the interspots and a reference injection (i.e. injection of running buffer only) were subtracted from the RU traces obtained after injection of ankyrin repeat protein (double-referencing).

[2] = target: T3, biotinylated extracellular domain of human CD33 (SEQ ID NO: 87), Fc and Avi tagged (human, UniProt P20138 18-259, biotinylated with BirA-GST (Avi tag)); assay: SPR (ProteOn XPR36), target on GLC chip, DARPin as analyte
T3 construct: also called hCD33; human target hCD33
Excerpt: as §1, §2

[3] = target: T2, biotinylated extracellular domain of …; assay: as above
Excerpt: as §1, §2

human serum albumin [4] = target: T4, human serum albumin (human, UniProt P02768 25-609); assay: as above
T4 construct: also called HSA; SA
Excerpt: as §1, §2

[5] = target: T2, biotinylated extracellular domain of …; assay: SPR (ProteOn XPR36), target on GLC chip
Excerpt: as §1, §2

[6] = target: T1, extracellular domain of human CD70 (SEQ …); assay: SPR (ProteOn XPR36), target on GLC chip, DARPin as analyte
Excerpt: as §1, §2

human serum albumin [7] = target: T4, human serum albumin; assay: SPR (ProteOn XPR36), target on GLC chip
Excerpt: as §1, §2

T3 sequence (P20138 18-259 R69G): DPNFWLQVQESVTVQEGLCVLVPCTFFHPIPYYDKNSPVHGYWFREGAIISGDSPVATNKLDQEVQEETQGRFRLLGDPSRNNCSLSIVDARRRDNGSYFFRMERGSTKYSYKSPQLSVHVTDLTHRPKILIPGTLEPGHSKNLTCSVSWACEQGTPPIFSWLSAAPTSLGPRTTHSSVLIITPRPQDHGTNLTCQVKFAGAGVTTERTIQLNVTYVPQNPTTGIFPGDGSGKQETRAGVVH
T4 sequence (P02768 25-609 limits assumed): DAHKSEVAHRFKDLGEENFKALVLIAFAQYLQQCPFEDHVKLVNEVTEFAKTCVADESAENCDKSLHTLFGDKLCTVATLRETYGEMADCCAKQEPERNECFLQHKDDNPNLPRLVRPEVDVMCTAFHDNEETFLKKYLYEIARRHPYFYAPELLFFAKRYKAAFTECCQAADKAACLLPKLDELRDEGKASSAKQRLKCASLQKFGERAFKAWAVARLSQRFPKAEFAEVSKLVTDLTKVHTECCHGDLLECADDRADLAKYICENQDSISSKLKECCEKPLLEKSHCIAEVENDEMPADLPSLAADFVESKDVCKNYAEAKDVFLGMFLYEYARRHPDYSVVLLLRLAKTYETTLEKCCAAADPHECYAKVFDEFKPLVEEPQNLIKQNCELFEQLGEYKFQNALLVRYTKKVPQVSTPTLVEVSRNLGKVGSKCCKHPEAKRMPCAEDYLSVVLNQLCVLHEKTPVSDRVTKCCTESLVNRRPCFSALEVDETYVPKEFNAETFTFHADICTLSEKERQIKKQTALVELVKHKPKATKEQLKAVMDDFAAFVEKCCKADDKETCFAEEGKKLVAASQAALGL

Row | Binder | Kd [2] | Kd [3] | Kd (human serum albumin [4]) | Kd [6] | binding result [1] | binding result [5] | binding result (human serum albumin [7])
1 | DARPin® protein #36 (designed binder, CD33-specific ankyrin repeat domain; not shown: N-terminal His-tag) DLGVKLLLAASRGQLDEVRILLKAGADVNAKDIDEGYTPLHIAAYYGHLEIVEVLLKAGADVNAKDRYGKTPLHLAAISGHLEIVEVLLKAGADVNAQDDKGDTPADLAADYGHQDIAEVLQKAA | 6.7 nM |  |  |  | no binding (tested: 100 nM (highest concentration)) | no binding (tested: 100 nM (highest concentration)) | no binding (tested: 100 nM (highest concentration))
2 | DARPin® protein #31 (designed binder, CD70-CD123-CD33-CD3; not shown: N-terminal His-tag) DLGYKLLQAAYDGQLDEVRILLKAGADVNAKDSRGQTPLHYAASIGHLEIVEVLLKAGADVNAKDDHGWTPLHLAAWSGHLEIVEVLLKAGADVNAQDQEGTTPADLAAVQGHQDIAEVLQKAAGSPTPTPTTPTPTPTTPTPTPTGSDLGKKLLEAALEGQLDEVRELLKAGADVNAKDQEGYTPLHLAAALGHLEIVEVLLKAGADVNAKDSIGRTPLHLAAYKGHLEIVEVLLKAGADVNAQDLLGETPADLAAEQGHQDIAEVLQKAAGSPTPTPTTPTPTPTTPTPTPTGSDLGVKLLRAAVHGQLDEVRILLKAGADVNAKDTDGETPLHYAAQFGHLEIVEVLLKAGADVNAKDAYGATPLHWAAWHGHLEIVEVLLKAGADVNAQDVSGATPADLAAKVGHQDIAEVLQKAAGSPTPTPTTPTPTPTTPTPTPTGSDLGQKLLEAAWAGQDDEVRELLKAGADVNAKNSRGWTPLHTAAQTGHLEIFEVLLKAGADVNAKDDKGVTPLHLAAALGHLEIVEVLLKAGADVNAQDSWGTTPADLAAKYGHEDIAEVLQKAA | 11 nM | 10 nM |  | 0.31 nM |  |  | no binding (tested: 100 nM (highest concentration))
3 | DARPin® protein #49 (designed binder, CD123-CD33-CD3-HSA; not shown: N-terminal His-tag) DLGKKLLEAALEGQLDEVRELLKAGADVNAKDQEGYTPLHLAAALGHLEIVEVLLKAGADVNAKDSIGRTPLHLAAYKGHLEIVEVLLKAGADVNAQDLLGETPADLAAEQGHQDIAEVLQKAAGSPTPTPTTPTPTPTTPTPTPTGSDLGVKLLLAASRGQLDEVRILLKAGADVNAKDIDEGYTPLHIAAYYGHLEIVEVLLKAGADVNAKDRYGKTPLHLAAISGHLEIVEVLLKAGADVNAQDDKGDTPADLAADYGHQDIAEVLQKAAGSPTPTPTTPTPTPTTPTPTPTGSDLGQKLLEAAWAGQDDEVRELLKAGADVNAKNSRGWTPLHTAAQTGHLEIFEVLLKAGADVNAKDDKGVTPLHLAAALGHLEIVEVLLKAGADVNAQDSWGTTPADLAAKYGHEDIAEVLQKAAGSPTPTPTTPTPTPTTPTPTPTGSDLGKKLLEAARAGQDDEVRELLKAGADVNAKDYFSHTPLHLAARNGHLKIVEVLLKAGADVNAKDFAGKTPLHLAAADGHLEIVEVLLKAGADVNAQDIFGKTPADIAADAGHEDIAEVLQKAA | 6.8 nM | 23 nM | 14 nM |  | no binding (tested: 100 nM (highest concentration)) |  | 
4 | DARPin® protein #39 (designed binder, CD33-specific ankyrin repeat domain; not shown: N-terminal His-tag) DLGVKLLRAAVHGQLDEVRILLKAGADVNAKDTDGETPLHYAAQFGHLEIVEVLLKAGADVNAKDAYGATPLHWAAWHGHLEIVEVLLKAGADVNAQDVSGATPADLAAKVGHQDIAEVLQKAA | 24 nM |  |  |  | no binding (tested: 100 nM (highest concentration)) | no binding (tested: 100 nM (highest concentration)) | no binding (tested: 100 nM (highest concentration))

The next binders have a lower Kd [2] than those just listed; values first:

Row | Kd [2] | Kd [3] | Kd (human serum albumin [4]) | Kd [6] | Binder | binding result [1] | binding result [5] | binding result (human serum albumin [7])
5 | 5.4 nM | 8 nM | 15 nM |  | DARPin® protein #47 (designed binder, HSA-CD123-CD33-CD3; not shown: N-terminal His-tag) DLGKKLLEAARAGQDDEVRELLKAGADVNAKDYFSHTPLHLAARNGHLKIVEVLLKAGADVNAKDFAGKTPLHLAAADGHLEIVEVLLKAGADVNAQDIFGKTPADIAADAGHEDIAEVLQKAAGSPTPTPTTPTPTPTTPTPTPTGSDLGKKLLEAALEGQLDEVRELLKAGADVNAKDQEGYTPLHLAAALGHLEIVEVLLKAGADVNAKDSIGRTPLHLAAYKGHLEIVEVLLKAGADVNAQDLLGETPADLAAEQGHQDIAEVLQKAAGSPTPTPTTPTPTPTTPTPTPTGSDLGVKLLLAASRGQLDEVRILLKAGADVNAKDIDEGYTPLHIAAYYGHLEIVEVLLKAGADVNAKDRYGKTPLHLAAISGHLEIVEVLLKAGADVNAQDDKGDTPADLAADYGHQDIAEVLQKAAGSPTPTPTTPTPTPTTPTPTPTGSDLGQKLLEAAWAGQDDEVRELLKAGADVNAKNSRGWTPLHTAAQTGHLEIFEVLLKAGADVNAKDDKGVTPLHLAAALGHLEIVEVLLKAGADVNAQDSWGTTPADLAAKYGHEDIAEVLQKAA | no binding (tested: 100 nM (highest concentration)) |  | 
6 | 5.7 nM |  | 48 nM | 0.27 nM | DARPin® protein #52 (designed binder, not shown: N-terminal His-tag) DLGYKLLQAAYDGQLDEVRILLKAGADVNAKDSRGQTPLHYAASIGHLEIVEVLLKAGADVNAKDDHGWTPLHLAAWSGHLEIVEVLLKAGADVNAQDQEGTTPADLAAVQGHQDIAEVLQKAAGSPTPTPTTPTPTPTTPTPTPTGSDLGVKLLLAASRGQLDEVRILLKAGADVNAKDIDEGYTPLHIAAYYGHLEIVEVLLKAGADVNAKDRYGKTPLHLAAISGHLEIVEVLLKAGADVNAQDDKGDTPADLAADYGHQDIAEVLQKAAGSPTPTPTTPTPTPTTPTPTPTGSDLGQKLLEAAWAGQDDEVRELLKAGADVNAKNSRGWTPLHTAAQTGHLEIFEVLLKAGADVNAKDDKGVTPLHLAAALGHLEIVEVLLKAGADVNAQDSWGTTPADLAAKYGHEDIAEVLQKAAGSPTPTPTTPTPTPTTPTPTPTGSDLGKKLLEAARAGQDDEVRELLKAGADVNAKDYFSHTPLHLAARNGHLKIVEVLLKAGADVNAKDFAGKTPLHLAAADGHLEIVEVLLKAGADVNAQDIFGKTPADIAADAGHEDIAEVLQKAA |  | no binding (tested: 100 nM (highest concentration)) | 
7 | 4.2 nM | 5.1 nM | 1.1 nM |  | DARPin® protein #48 (designed binder, HSA-HSA-CD123-CD33-CD3; not shown: N-terminal His-tag) DLGKKLLEAARAGQDDEVRELLKAGADVNAKDYFSHTPLHLAARNGHLKIVEVLLKAGADVNAKDFAGKTPLHLAAADGHLEIVEVLLKAGADVNAQDIFGKTPADIAADAGHEDIAEVLQKAAGSPTPTPTTPTPTPTTPTPTPTGSDLGKKLLEAARAGQDDEVRELLKAGADVNAKDYFSHTPLHLAARNGHLKIVEVLLKAGADVNAKDFAGKTPLHLAAADGHLEIVEVLLKAGADVNAQDIFGKTPADIAADAGHEDIAEVLQKAAGSPTPTPTTPTPTPTTPTPTPTGSDLGKKLLEAALEGQLDEVRELLKAGADVNAKDQEGYTPLHLAAALGHLEIVEVLLKAGADVNAKDSIGRTPLHLAAYKGHLEIVEVLLKAGADVNAQDLLGETPADLAAEQGHQDIAEVLQKAAGSPTPTPTTPTPTPTTPTPTPTGSDLGVKLLLAASRGQLDEVRILLKAGADVNAKDIDEGYTPLHIAAYYGHLEIVEVLLKAGADVNAKDRYGKTPLHLAAISGHLEIVEVLLKAGADVNAQDDKGDTPADLAADYGHQDIAEVLQKAAGSPTPTPTTPTPTPTTPTPTPTGSDLGQKLLEAAWAGQDDEVRELLKAGADVNAKNSRGWTPLHTAAQTGHLEIFEVLLKAGADVNAKDDKGVTPLHLAAALGHLEIVEVLLKAGADVNAQDSWGTTPADLAAKYGHEDIAEVLQKAA | no binding (tested: 100 nM (highest concentration)) |  | 
